# B1: anti-CD4 Fab fragment m13B8.2 with Twin Strep-Tag (Fab, V domains shown)
# VH: QVQLKQSGPGLVQPSQSLSITCTVSGFSLTTFGVHWVRQSPGKGLEWLGVIWASGITDYNVPFMSRLSITKDNSKSQVFFKLNSLQPDDTAIYYCAKNDPGTGFAYWGQGTLVTVSA
# VL: DIQMTQSPASLSASVGETVTFTCRASEMIYSYLAWYQQKQGKSPQLLVHDAKTLAEGVPSRFSGGGSGTQFSLKINTLQPEDFGTYYCQAHYGNPPTFGGGTKLEIKR
# Legend:
# [1] = molecular target: T1, CD4 on the surface of human T cells (human, UniProt P01730 26-458); experiment: affinity column selection of cells from apheresis by the CD4 marker
# T1 construct: whole, on cells; also called selection marker CD4
# [2] = molecular target: T2, Strep-tactin M2 (streptavidin mutein) immobilised on the chromatography resin (Streptomyces avidinii, UniProt P22629 38-163); experiment: loading of the tagged Fab on Strep-tactin Sephadex G50, 20 min at 4 C
# T2 construct: also called immobilized Strep-tactin; STREP-TACTIN-coated resin
binder,measurement,setting,value
B1,binding result,[1],binds
same,binding result,[2],binds
